In one assay the target is T1, rPmFREP CRD (Penaeus monodon, UniProt A0A068LKH5).
T1 construct: XEEL signal peptide, His6 tag; insect cells; lacks oligomeric structure
As to the kind of experiment: GlcNAc-resin affinity column, elution with free GlcNAc, anti-His Western blot. To be noted: 8 ml GlcNAc resin; eluted with 100 mM GlcNAc; proteins loaded at 5 µM each; immobilised ligand. The class given is binding. Background: A western blot detects proteins with antibodies after separation by electrophoresis.

Assay [1] has as its target recombinant Penaeus monodon lipopolysaccharide and β-1,3-glucan binding protein (Penaeus monodon) (UniProt H9MER4). As to the kind of experiment: BLI; BLItz; rPmLGBP immobilised on Octet SA biosensor activated with EDC and NHS; analytes in 20 mM HEPES pH 7.5, 150 mM NaCl, 10 mM CaCl2; association 4 minutes, dissociation 4 minutes; curves globally fitted. For orientation: In BLI a coated tip is dipped into the sample, and binding shifts an interference pattern.

The target in assay [2] is Penaeus monodon lipopolysaccharide and β-1,3-glucan binding protein (endogenous, hemolymph) (Penaeus monodon (endogenous in shrimp hemolymph)).
In assay [3] the target is T2, recombinant Penaeus monodon lipopolysaccharide and β-1,3-glucan binding protein (Penaeus monodon, UniProt H9MER4 1-366).
T2 construct: The construct holds the protein's own N-terminus (signal peptide); also called rPmLGBP; PmLGBP; source: insect cell expression system (Bac-to-Bac baculovirus), purified (Ni-NTA); not shown: His6, C-terminal, kept
T2 sequence (looked up): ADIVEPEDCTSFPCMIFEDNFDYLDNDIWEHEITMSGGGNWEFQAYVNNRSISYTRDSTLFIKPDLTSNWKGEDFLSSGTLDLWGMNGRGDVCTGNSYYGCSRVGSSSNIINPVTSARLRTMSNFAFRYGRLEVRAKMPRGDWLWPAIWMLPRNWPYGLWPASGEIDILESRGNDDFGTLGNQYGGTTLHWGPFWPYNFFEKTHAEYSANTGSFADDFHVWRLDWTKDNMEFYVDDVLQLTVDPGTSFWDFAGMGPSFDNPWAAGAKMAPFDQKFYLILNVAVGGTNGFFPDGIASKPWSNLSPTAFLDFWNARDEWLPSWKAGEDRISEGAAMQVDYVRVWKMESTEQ
As to the kind of experiment: BLI; BLItz; rPmLGBP immobilised on Octet SA biosensor activated with EDC and NHS; analytes in 20 mM HEPES pH 7.5, 150 mM NaCl, 10 mM CaCl2; association 4 minutes, dissociation 4 minutes; curves globally fitted. The note with it: both partners purified.

The target of assay [4] is T2, recombinant Penaeus monodon …. As to the kind of experiment: curdlan binding assay; rPmFREP and rPmLGBP, 0.1 µM each, incubated with 1 mg curdlan in 20 mM HEPES pH 7.5, 150 mM NaCl, 10 mM CaCl2, 4°C, 16 hours; curdlan collected by centrifugation, washed three times, eluted with 2% SDS; anti-His Western blot, densitometry of rPmFREP. The note with it: both partners purified.

In general, Kd refers to the constant that tells how readily two partners part at equilibrium.

With `CC(=O)N[C@H]1C(O)O[C@H](CO)[C@@H](O)[C@@H]1O` (stereo partly drawn) [N-acetylglucosamine], the “GlcNAc-resin affinity column, elution with free GlcNAc, anti-His Western blot” value on rPmFREP CRD was “rPmFREP and rPmFREP CRD were bound to the GlcNAc column”.

rPmFREP CC-MBP (domain or fragment): in assay [1], the Kd is 220 nM. Moreover, in assay [2], the PO activity in hemolymph of shrimp injected with the recombinant protein (1 nmol/g shrimp) and then infected with VP AHPND, against rMBP-injected control shrimp came to 3 fold.

B1: recombinant Penaeus monodon fibrinogen-related protein (natural protein, UniProt A0A068LKH5 1-312, looked up)
chain: TTERTDTAEPQQPGGCHALPSLLQSAGSSLTCIAASLINCQANENDQLSIAQDLRDTMSEVRRAIVDAERRRRRPRHCRDLQLDGDSESGVRRVFPFRSSPDAAATVYCDQETDGGGWTVFQRRLKLPVREDFYRTWVEYELGFGHMDGGEFWLGLDLVHRLTSTGLQEMRIDLTDYEDNAKWAKYGVFHLGDASTKYRLKVGRYNGTAGDGFGSGRHDGHPFTTHDNDNDGDGANCAARYRGAWWYDKCHISNLNGFPYEGDHESYADGIEWQPWRGYHYSLKTTTMMIRPAF
notes: also called rPmFREP; PmFREP; source: insect cell expression system (baculovirus), purified (Ni-NTA)
For the molecule B1, in assay [3], the dissociation constant (Kd) is 340 nM. Further, the PO activity in hemolymph of shrimp injected with the recombinant protein (1 nmol/g shrimp) and then infected with VP AHPND, against rMBP-injected control shrimp in assay [2] is 3.4 fold. Also, the “fold more rPmFREP in the curdlan elution fraction with rPmLGBP than without it” value in assay [4] is roughly 3.1 fold.
